Results taken from US7754684B2, “Macromolecular platinum chelates” (priority 2003, dated 2010).

Experiments:
[1] = Platinum release from PBS (percent small Pt species released from polymer-platinum conjugate); type: physicochemical; conditions: PBS at 37° C.
Protocol: The compound tested comprised a poly(N-(2-hydroxypropyl)methacrylamide (90%)-co-(N-(linker)-Pt complex)methacrylamide (10%)) polymer and either cis-diammine or 1R,2R-diaminocyclohexane (DACH) as the stable ligands/chelate of the Pt complex. The leaving-ligand comprised an N,O bidentate ligand with amidoaspartate (Asp) or amidomalonate (Ama).
The percent of small platinum species released over time was measured by dissolving about 30 mg of the polymer-platinum conjugate in 15 mL of phosphate buffered saline (10 mM phosphate, 123 mM Cl^−) and incubating the solution at 37° C. in a water bath. At indicated times, 2.0 mL aliquots were transferred to a centrifugal filter with a 3 kDa nominal molecular weight cutoff (Centricon YM-3 from Millipore) and spun until >1.5 mL of filtrate had accumulated. The timed filtrates and the original solution were analyzed for platinum by ICP-OES. The percent of small Pt species released was determined using the formula: ((ppm Pt in filtrate)/(ppm Pt in stock solution)) X 100.

[2] = Table 2. Comparison of representative compounds C1-C13 of this invention versus carboplatin.
Excerpt: Table printed on a drawing sheet, FIGURE 15
Title: Table 2. Comparison of representative compounds C1-C13 of this invention versus carboplatin.
The patent's description of the figure: FIG. 15 is Table 2.
First reader's note: Relative TGI is an in-vivo tumor growth inhibition class relative to carboplatin; C2, C3 and C5 are printed with 'Ama-Pt' (hyphen) instead of 'Ama=Pt'.

[3] = Maximum tolerated dosage used in the B16F10 murine melanoma model; type: in vivo, C57BL/6 mice; conditions: mice
Protocol: C57BL/6 mice (10 animals per compound treatment group) were dosed with the amount of compound indicated. The mice were inoculated subcutaneously in the right rear flank with 10^6 B16F10 murine melanoma cells. Beginning at day 6 post-implantation, tumor size was measured daily using calipers under light Methfurane anesthesia. The mass of the resulting tumor in milligrams was estimated using the formula W^2(L)/2 where W is the length of the shorter tumor dimension and L is the length of the longer dimension. Treatment was commenced when the tumor was 50-75 mg or larger. Each animal was followed individually so that Day 1 of treatment for each animal was the day on which that animal's tumor reached the appropriate size. The test compounds were administered […] through the tail vein using a volume of 0.2-0.3 mL per 20 grams body weight. The animals were observed and weighed daily prior to dosing to establish the proper dosing volume for that day and such was continued until the end of the study. […]

[4] = Platinum release from PBS (percent small Pt species released from polymer-platinum conjugate); type: physicochemical
[5] = tested on: B16F10 murine melanoma cells; assay: B16F10 murine melanoma tumor growth inhibition in C57BL/6 mice; type: in vivo; conditions: each compound at its MTD (20 mgPt/kg vs. 50 mgPt/Kg), groups of ten mice
Protocol: C57BL/6 mice (10 animals per compound treatment group) were dosed with the amount of compound indicated. The mice were inoculated subcutaneously in the right rear flank with 10^6 B16F10 murine melanoma cells. Beginning at day 6 post-implantation, tumor size was measured daily using calipers under light Methfurane anesthesia. The mass of the resulting tumor in milligrams was estimated using the formula W^2(L)/2 where W is the length of the shorter tumor dimension and L is the length of the longer dimension. Treatment was commenced when the tumor was 50-75 mg or larger. Each animal was followed individually so that Day 1 of treatment for each animal was the day on which that animal's tumor reached the appropriate size. The test compounds were administered […] through the tail vein using a volume of 0.2-0.3 mL per 20 grams body weight. The animals were observed and weighed daily prior to dosing to establish the proper dosing volume for that day and such was continued until the end of the study.
Using the above procedure, a number of exemplary compounds of this invention were compared to carboplatin. […]

Substance	% Pt Release ([1]; 3 h) [%]	% Pt Release ([1]; 24 h) [%]	also measured
Poly(HPMA)-GG-Asp=Pt=1R,2R-DACH [54b]	3.20	10.68	–
p(HMPA)-GFLG-Ama=Pt=DACH [C2] [listing 1 of 2 here]	–	–	Pt release (% at 24 h) [2]: 2.6 % at 24 h
p(HMPA)-GFLG-Ama=Pt=DACH [C2] [listing 2 of 2 here]	–	–	maximum tolerated dosage (MTD) [3]: 50 mgPt/kg
poly(HPMA)-GFLG-Asp=Pt(NH3)2 [60a]	1.95	5.85	–
poly(HPMA)-GFLG-C3-Sulf-Ama=Pt(NH3)2 [75a]	3.02	5.44	–
poly(HPMA)-GG-Ama=Pt(NH3)2 [53a]	1.4	4.6	–
poly(HPMA)-GG-Ama=Pt=1R,2R-DACH [53b]	1.3	5.5	–
poly(HPMA)-GG-Asp=Pt(NH3)2 [54a]	–	–	Pt release in PBS at 38.C ([4]; 3 hr): 3.92%; Pt release in PBS at 38.C ([4]; 24 hr): 11.02%
poly(HPMA)-GGG-Ama=Pt=1R, 2R-DACH [C13] [listing 1 of 2 here]	–	–	Pt release (% at 24 h) [2]: 3.6 % at 24 h
poly(HPMA)-GGG-Ama=Pt=1R, 2R-DACH [C13] [listing 2 of 2 here]	–	–	delay in tumor growth, C13 versus C2 (FIG. 14) [5]: prolonged delay in tumor growth compared to compound C2; maximum tolerated dosage (MTD) [3]: 20 mgPt/kg
poly(HPMA)-GGGG-Ama=PtDACH [57b]	0.972	3.173	–
